Bridge positions count the residues as written; N and C are the ends. Ends that are not written are not given here.

The labels stand for the following.
B1: consensus peptide CLLRMRSIC (SEQ ID NO: 1), cyclized in the disulfide-linked form (peptide)
peptide: CLLRMRSIC
modifications: disulfide 1-9
notes: Synthesized by Biopeptide; consensus derived from phage display on ICAM-1

T2 sequence (P05362 28-480 limits assumed): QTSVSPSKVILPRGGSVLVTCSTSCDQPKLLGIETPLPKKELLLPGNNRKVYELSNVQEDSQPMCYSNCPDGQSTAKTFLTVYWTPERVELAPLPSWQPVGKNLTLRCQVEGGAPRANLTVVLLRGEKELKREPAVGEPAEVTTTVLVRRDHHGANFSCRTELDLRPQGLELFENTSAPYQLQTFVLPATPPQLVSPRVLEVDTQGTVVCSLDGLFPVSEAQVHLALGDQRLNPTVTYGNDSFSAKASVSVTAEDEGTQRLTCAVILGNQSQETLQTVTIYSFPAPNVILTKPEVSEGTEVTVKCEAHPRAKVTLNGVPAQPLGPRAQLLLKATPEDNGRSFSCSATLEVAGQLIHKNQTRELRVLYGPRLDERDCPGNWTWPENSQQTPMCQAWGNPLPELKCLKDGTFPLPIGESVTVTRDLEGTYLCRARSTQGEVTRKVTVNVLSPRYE

One experiment deals with T1, ICAM-1 expressed on cells (JY cells; stimulated endothelial cells) (UniProt P05362 28-532, limits assumed). Kind of experiment: cell-based or functional assay.
T1 sequence (P05362 28-532 limits assumed): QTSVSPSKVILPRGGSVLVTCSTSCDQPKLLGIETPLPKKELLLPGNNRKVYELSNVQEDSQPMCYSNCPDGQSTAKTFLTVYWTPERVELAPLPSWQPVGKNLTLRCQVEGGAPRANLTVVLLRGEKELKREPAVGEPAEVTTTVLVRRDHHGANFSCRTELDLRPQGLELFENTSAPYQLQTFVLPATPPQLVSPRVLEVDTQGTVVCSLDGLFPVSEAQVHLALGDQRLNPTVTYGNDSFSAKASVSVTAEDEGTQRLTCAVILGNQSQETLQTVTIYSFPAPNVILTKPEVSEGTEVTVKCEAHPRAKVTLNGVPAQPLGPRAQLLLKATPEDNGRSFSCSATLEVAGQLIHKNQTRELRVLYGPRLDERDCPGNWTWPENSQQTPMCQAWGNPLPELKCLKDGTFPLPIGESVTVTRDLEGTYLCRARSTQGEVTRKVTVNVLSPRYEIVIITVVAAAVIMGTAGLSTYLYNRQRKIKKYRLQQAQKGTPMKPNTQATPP
As to B1, the “IC50, inhibition of JY cell aggregation” value is 500 µM and the “IC50 for cell aggregation” value was 800 µM.

A further experiment concerns the target T1, ICAM-1 expressed on cells (JY cells; …). Kind of experiment: cell-based or functional assay. This is another data set of the same source.
Take B1: the “Cells/mm^2, firm attachment of neutrophils to stimulated endothelial cells in a parallel plate flow chamber” value (shortened to “Cells/mm^2, firm attachment”) is 439 cells/mm^2 and the “Percent Inhibition of firm attachment of neutrophils to stimulated endothelial cells” value turned out to be 47 percent.

Consider CLLRMKSAC (disulfide 1-9) [CLLRMKSAC (SEQ ID NO: 46), cyclic disulfide-linked peptide], for which the “Cells/mm^2, firm attachment” value worked out at 283 cells/mm^2 and the “Percent Inhibition of firm attachment of neutrophils to stimulated endothelial cells” value was 66 percent.

With CLRLSRIMC (disulfide 1-9) [randomized cyclic peptide CLRLSRIMC (SEQ ID NO: 56)], the “Cells/mm^2, firm attachment” value is 617 cells/mm^2 and the “Percent Inhibition of firm attachment of neutrophils to stimulated endothelial cells” value came to 25 percent.

A further experiment has the same target. In words: cell-based or functional assay. This is another data set of the same source.
Regarding CLLRMRSAC (disulfide 1-9) [CLLRMRSAC (SEQ ID NO: 40), cyclic disulfide-linked peptide], the “Percent Inhibition” value came out at 61 percent and the “Percent JY Aggregation” value was 29 percent.

For the molecule CLLRMASIC (disulfide 1-9) [CLLRMASIC (SEQ ID NO: 38), cyclic disulfide-linked peptide], the “Percent Inhibition” value was 11 percent and the “Percent JY Aggregation” value came to 68 percent.

Turning to CALRMRSIC (disulfide 1-9) [CALRMRSIC (SEQ ID NO: 34), cyclic disulfide-linked peptide], the “Percent Inhibition” value worked out at 7 percent and the “Percent JY Aggregation” value was determined as 71 percent.

With B1, the “Percent Inhibition” value stood at 46 percent and the “Percent JY Aggregation” value came out at 41 percent.

Regarding CLLRARSIC (disulfide 1-9) [CLLRARSIC (SEQ ID NO: 37), cyclic disulfide-linked peptide], the “Percent Inhibition” value came out at 5 percent and the “Percent JY Aggregation” value amounted to 72 percent.

With CLRLSRIMC (disulfide 1-9) [randomized cyclic peptide CLRLSRIMC (SEQ ID NO: 56)], the “Percent Inhibition” value was 4 percent and the “Percent JY Aggregation” value worked out at 74 percent.

For CLLRMRAIC (disulfide 1-9) [CLLRMRAIC (SEQ ID NO: 39), cyclic disulfide-linked peptide], the “Percent Inhibition” value stood at 27 percent and the “Percent JY Aggregation” value came out at 56 percent.

Consider CLARMRSIC (disulfide 1-9) [CLARMRSIC (SEQ ID NO: 35), cyclic disulfide-linked peptide], for which the “Percent Inhibition” value is 9 percent and the “Percent JY Aggregation” value amounted to 69 percent.

The next experiment has as its target T2, ICAM-1 (intracellular adhesion molecule 1), as used in the ELISA of monovalent ICAM-1 binding (human, UniProt P05362 28-480, limits assumed).
T2 construct: also called purified ICAM-1
Kind of experiment: ELISA of monovalent ICAM-1 binding; for example inhibition of 84H10 binding to ICAM-1. On the technique in general: An ELISA detects its analyte on a solid surface through an enzyme-linked reagent.
Consider B1, for which the IC50 was 0.25 µM.

The target of a further experiment is T1, ICAM-1 expressed on cells (JY cells; …). In words: cell-based or functional assay. The source holds these as a separate data set.
As for CLLRMRSLC (disulfide 1-9) [CLLRMRSLC (SEQ ID NO: 47), cyclic disulfide-linked peptide], the “Percent Inhibition” value is -12 percent and the “Percent JY Aggregation” value is 61 percent.

Regarding CLIRMRSAC (disulfide 1-9) [CLIRMRSAC (SEQ ID NO: 44), cyclic disulfide-linked peptide], the “Percent Inhibition” value was 93 percent and the “Percent JY Aggregation” value was found to be 4 percent.

CLVRMRSAC (disulfide 1-9) [CLVRMRSAC (SEQ ID NO: 41), cyclic disulfide-linked peptide]: the “Percent Inhibition” value came out at 0 percent and the “Percent JY Aggregation” value was found to be 55 percent.

For B1, the “Percent Inhibition” value stood at 45 percent and the “Percent JY Aggregation” value was 30 percent.

For CLLKMRSAC (disulfide 1-9) [CLLKMRSAC (SEQ ID NO: 45), cyclic disulfide-linked peptide], the “Percent Inhibition” value was determined as 94 percent and the “Percent JY Aggregation” value turned out to be 3 percent.

As for CILRMRSAC (disulfide 1-9) [CILRMRSAC (SEQ ID NO: 43), cyclic disulfide-linked peptide], the “Percent Inhibition” value was 92 percent and the “Percent JY Aggregation” value was found to be 4 percent.

For the molecule CLLRMKSAC (disulfide 1-9) [CLLRMKSAC (SEQ ID NO: 46), cyclic disulfide-linked peptide], the “Percent Inhibition” value came to 90 percent and the “Percent JY Aggregation” value was 6 percent.

CLRLSRIMC (disulfide 1-9) [randomized cyclic peptide CLRLSRIMC (SEQ ID NO: 56)]: the “Percent Inhibition” value was -3.6 percent and the “Percent JY Aggregation” value stood at 57 percent.

Consider CLLRMRSVC (disulfide 1-9) [CLLRMRSVC (SEQ ID NO: 48), cyclic disulfide-linked peptide], for which the “Percent Inhibition” value was 92 percent and the “Percent JY Aggregation” value turned out to be 4 percent.

CVLRMRSAC (disulfide 1-9) [CVLRMRSAC (SEQ ID NO: 42), cyclic disulfide-linked peptide]: the “Percent Inhibition” value was 56 percent and the “Percent JY Aggregation” value turned out to be 24 percent.

A word on the IC50: it is the concentration that gives 50% inhibition. Higher therefore signals weaker potency.

The values are drawn from US20010034326A1 (UNIVERSITY OF NEW MEXICO, published 2001).
